Source: US20250262210A1 (TRUSTEES OF COLUMBIA UNIVERSITY IN THE CITY OF NEW YORK, published 2025)

Assays:
Experiment in all cases: IP/MS, LZTR1 R810W-FLAG, U87
CC2D1A = biological target: T1, CC2D1A (human, UniProt Q6P1N0 1-951, limits assumed)
T1 sequence (looked up): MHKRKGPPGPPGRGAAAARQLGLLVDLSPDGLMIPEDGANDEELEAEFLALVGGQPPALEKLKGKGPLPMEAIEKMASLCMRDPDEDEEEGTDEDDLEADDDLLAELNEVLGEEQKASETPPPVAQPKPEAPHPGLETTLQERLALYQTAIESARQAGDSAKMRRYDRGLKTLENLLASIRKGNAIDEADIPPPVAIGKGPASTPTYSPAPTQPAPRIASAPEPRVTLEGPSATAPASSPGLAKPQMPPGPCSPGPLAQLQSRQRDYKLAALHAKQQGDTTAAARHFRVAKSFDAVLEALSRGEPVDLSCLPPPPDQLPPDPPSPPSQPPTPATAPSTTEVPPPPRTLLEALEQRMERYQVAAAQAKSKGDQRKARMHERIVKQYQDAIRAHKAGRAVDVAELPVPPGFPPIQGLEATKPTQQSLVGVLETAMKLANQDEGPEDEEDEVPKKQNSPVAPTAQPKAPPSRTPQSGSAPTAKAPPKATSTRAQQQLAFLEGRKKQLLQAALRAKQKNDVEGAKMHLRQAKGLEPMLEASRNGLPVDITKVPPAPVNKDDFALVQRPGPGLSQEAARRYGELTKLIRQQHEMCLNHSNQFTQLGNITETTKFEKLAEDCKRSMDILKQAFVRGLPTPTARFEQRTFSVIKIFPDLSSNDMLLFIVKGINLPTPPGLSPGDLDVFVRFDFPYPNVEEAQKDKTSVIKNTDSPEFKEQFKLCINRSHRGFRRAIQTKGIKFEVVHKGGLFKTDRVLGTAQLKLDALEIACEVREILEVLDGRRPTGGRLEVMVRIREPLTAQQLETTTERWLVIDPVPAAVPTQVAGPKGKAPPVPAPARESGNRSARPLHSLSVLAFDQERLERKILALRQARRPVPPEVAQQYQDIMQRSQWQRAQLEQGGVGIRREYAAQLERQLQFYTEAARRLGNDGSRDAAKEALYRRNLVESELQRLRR
Outline: (§1)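 Read-out: spectral counts from LC-MS/MS (Orbitrap Fusion) after MaxQuant identification. Variable modifications were Met oxidation, protein N-terminal acetylation and N/Q deamidation.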

PTPN23 = PTPN23 (human, UniProt Q9H3S7 1-1636)
Outline: as §1

POLR3A = biological target: T2, POLR3A (human, UniProt O14802 1-1390)
T2 sequence (looked up): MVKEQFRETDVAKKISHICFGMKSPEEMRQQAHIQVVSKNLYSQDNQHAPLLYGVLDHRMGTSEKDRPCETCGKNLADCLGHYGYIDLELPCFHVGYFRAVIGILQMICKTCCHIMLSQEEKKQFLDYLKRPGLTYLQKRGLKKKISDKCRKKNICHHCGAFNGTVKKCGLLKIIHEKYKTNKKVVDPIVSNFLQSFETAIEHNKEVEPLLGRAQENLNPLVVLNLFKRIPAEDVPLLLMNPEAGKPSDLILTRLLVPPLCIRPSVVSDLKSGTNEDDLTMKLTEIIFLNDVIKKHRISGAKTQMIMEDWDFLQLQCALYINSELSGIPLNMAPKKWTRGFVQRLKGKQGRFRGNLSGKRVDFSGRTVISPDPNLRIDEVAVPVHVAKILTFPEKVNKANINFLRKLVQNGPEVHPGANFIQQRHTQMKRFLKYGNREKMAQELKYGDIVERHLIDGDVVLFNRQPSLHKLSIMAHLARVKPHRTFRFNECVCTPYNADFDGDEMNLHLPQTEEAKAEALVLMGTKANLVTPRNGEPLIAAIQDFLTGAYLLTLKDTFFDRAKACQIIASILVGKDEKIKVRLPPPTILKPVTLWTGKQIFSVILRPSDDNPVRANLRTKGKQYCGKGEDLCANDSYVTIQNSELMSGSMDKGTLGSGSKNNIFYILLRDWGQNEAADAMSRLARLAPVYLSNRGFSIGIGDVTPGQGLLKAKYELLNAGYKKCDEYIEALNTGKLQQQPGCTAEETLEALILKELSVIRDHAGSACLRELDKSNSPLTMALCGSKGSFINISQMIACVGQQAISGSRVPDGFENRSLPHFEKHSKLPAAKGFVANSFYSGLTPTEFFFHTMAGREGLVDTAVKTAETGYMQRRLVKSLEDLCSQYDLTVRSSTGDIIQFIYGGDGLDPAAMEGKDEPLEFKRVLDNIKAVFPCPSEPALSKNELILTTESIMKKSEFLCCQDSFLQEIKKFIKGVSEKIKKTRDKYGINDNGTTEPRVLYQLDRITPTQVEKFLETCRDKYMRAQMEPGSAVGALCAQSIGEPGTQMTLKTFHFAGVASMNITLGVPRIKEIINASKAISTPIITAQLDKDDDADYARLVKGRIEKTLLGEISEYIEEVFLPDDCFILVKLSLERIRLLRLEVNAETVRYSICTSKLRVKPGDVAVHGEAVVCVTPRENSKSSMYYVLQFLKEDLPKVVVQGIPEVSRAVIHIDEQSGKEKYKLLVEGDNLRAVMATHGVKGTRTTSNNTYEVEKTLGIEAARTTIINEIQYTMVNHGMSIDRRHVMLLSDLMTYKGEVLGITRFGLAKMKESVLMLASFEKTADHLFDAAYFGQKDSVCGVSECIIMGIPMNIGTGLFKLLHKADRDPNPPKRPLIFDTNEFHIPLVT
Outline: as §1

Measured: binding result

Sequence of PTPN23 (Q9H3S7 whole entry): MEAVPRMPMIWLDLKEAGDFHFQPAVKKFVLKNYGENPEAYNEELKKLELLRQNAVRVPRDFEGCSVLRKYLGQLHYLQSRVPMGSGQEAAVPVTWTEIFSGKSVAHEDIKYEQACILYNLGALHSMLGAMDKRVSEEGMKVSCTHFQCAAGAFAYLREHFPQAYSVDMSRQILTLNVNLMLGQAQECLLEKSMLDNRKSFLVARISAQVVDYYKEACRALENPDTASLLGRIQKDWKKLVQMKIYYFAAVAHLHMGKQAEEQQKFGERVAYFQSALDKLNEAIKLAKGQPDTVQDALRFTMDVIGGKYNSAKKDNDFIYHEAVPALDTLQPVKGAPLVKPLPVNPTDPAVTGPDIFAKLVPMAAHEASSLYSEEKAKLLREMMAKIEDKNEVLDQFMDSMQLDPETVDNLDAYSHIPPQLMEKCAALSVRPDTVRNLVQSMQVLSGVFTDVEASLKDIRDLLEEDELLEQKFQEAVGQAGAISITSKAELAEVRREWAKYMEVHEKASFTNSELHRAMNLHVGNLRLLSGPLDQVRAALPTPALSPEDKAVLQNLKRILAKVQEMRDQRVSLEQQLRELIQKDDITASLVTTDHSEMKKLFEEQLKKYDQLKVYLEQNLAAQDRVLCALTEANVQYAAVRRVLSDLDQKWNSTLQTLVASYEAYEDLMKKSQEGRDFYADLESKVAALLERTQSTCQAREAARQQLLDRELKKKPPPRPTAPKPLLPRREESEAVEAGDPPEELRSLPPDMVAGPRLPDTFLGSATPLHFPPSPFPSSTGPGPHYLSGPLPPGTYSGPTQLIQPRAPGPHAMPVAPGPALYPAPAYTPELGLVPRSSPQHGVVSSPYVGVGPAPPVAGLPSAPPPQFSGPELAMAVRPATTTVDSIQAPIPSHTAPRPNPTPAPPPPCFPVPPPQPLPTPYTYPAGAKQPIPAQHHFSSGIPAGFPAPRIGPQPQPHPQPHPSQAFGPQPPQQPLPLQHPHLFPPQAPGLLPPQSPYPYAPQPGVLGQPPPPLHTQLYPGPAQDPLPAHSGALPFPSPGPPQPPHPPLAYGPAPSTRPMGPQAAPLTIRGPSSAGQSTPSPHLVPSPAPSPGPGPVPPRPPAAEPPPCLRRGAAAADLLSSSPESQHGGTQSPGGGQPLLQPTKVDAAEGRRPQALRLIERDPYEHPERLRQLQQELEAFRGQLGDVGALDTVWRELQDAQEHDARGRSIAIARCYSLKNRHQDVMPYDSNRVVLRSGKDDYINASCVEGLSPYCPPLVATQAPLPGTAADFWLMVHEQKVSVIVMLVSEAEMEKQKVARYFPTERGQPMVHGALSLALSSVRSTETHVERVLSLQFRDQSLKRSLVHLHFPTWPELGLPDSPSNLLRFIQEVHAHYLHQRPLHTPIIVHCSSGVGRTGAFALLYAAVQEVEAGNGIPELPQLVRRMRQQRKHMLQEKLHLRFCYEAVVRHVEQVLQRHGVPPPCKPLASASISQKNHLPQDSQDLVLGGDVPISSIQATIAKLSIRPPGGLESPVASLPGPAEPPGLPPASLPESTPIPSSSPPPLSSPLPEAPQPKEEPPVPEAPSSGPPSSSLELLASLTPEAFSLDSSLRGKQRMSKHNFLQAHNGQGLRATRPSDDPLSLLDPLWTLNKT

B1: LZTR1 R810W-FLAG (other, human, UniProt Q8N653 1-840, looked up)
chain: MAGPGSTGGQIGAAALAGGARSKVAPSVDFDHSCSDSVEYLTLNFGPFETVHRWRRLPPCDEFVGARRSKHTVVAYKDAIYVFGGDNGKTMLNDLLRFDVKDCSWCRAFTTGTPPAPRYHHSAVVYGSSMFVFGGYTGDIYSNSNLKNKNDLFEYKFATGQWTEWKIEGRLPVARSAHGATVYSDKLWIFAGYDGNARLNDMWTIGLQDRELTCWEEVAQSGEIPPSCCNFPVAVCRDKMFVFSGQSGAKITNNLFQFEFKDKTWTRIPTEHLLRGSPPPPQRRYGHTMVAFDRHLYVFGGAADNTLPNELHCYDVDFQTWEVVQPSSDSEVGGAEVPERACASEEVPTLTYEERVGFKKSRDVFGLDFGTTSAKQPTQPASELPSGRLFHAAAVISDAMYIFGGTVDNNIRSGEMYRFQFSCYPKCTLHEDYGRLWESRQFCDVEFVLGEKEECVQGHVAIVTARSRWLRRKITQARERLAQKLEQEAAPVPREAPGVAAGGARPPLLHVAIREAEARPFEVLMQFLYTDKIKYPRKGHVEDVLLIMDVYKLALSFQLCRLEQLCRQYIEASVDLQNVLVVCESAARLQLSQLKEHCLNFVVKESHFNQVIMMKEFERLSSPLIVEIVRRKQQPPPRTPLDQPVDIGTSLIQDMKAYLEGAGAEFCDITLLLDGHPRPAHKAILAARSSYFEAMFRSFMPEDGQVNISIGEMVPSRQAFESMLRYIYYGEVNMPPEDSLYLFAAPYYYGFYNNRLQAYCKQNLEMNVTVQNVLQILEAADKTQALDMKRHCLHIIVHQFTKVSKLPTLWSLSQQLLLDIIDSLASHISDKQCAELGADI
notes: Stably expressed in U87 cells by lentivirus; also called LZTR1-FLAG-R810W; LZTR1 RW; not shown: FLAG tag
binds: all assays above
